According to paper PMC5809584, “Plastic roles of phenylalanine and tyrosine residues of TLS/FUS in complex formation with the G-quadruplexes of telomeric DNA and TERRA”:

Molecular target: RGG3 of TLS/FUS (UniProt P35637 454-526)
Experiment: NMR CSP; equivalent amount, 50 mM KCl; NMR: 20 mM K-phosphate pH 6.2, 50 mM KCl, 1 mM DTT, 0.1 mM DSS, 5% D2O, 298 K; FA: 20 C (nucleic acids annealed in 20 mM K-phosphate pH 6.2, 50 mM KCl); EMSA: 50 mM Tris-HCl pH 7.5, 100 mM KCl, 0.5 mM EDTA, 0.5 mM DTT, 0.2 mg/mL BSA, 1 ug/mL calf thymus DNA, 20 C
Settings: protein: recombinant; tags: GST removed with PreScission; residual GST-vector residues at N-terminus; G4, heterogeneous

Sequence of RGG3 of TLS/FUS (P35637 454-526): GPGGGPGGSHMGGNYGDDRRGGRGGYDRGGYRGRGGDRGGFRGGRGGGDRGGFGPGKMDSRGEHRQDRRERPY

UUAGGGUUAGGGUUAGGGUUAGGG (structured_RNA) [TERRA24]
binding result: binds
